This experiment addresses bovine serum albumin (BSA) (bovine, UniProt P02769 25-607). Description: ELISA, BSA-coated plate, goat-anti-human HRP detection. Background: In an ELISA, binding on a coated surface is turned into a signal by an enzyme label.

bovine serum albumin (BSA), sequence (P02769 25-607 limits assumed): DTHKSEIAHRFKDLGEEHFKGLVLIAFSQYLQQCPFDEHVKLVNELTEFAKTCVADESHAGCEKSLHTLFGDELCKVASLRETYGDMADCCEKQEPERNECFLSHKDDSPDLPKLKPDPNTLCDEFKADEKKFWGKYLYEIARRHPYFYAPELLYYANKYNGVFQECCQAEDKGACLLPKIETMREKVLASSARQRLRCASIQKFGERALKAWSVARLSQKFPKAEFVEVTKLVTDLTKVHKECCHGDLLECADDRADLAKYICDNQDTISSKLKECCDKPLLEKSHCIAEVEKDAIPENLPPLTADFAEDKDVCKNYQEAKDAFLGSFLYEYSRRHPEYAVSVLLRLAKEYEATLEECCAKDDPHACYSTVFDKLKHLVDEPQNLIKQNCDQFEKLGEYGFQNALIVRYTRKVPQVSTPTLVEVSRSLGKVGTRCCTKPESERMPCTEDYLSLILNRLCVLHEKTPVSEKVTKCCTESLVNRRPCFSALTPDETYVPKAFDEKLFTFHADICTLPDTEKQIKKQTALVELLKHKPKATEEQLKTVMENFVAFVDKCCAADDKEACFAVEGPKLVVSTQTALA

B1: T427-αPE (B11 clone) IgG (bispecific, CD30 and PE38) (bispecific antibody)
light 1: not shown
heavy 1: not shown
light 2: MDIVLTQPPSASGTPGQRVTISCSGTSSDVGNSNLVSWYQQLPGTAPKLLIYGNSNRPSGVPDRFSGSKSGTSASLAISGLRSEDEADYYCCSYAGTGSPDVFGTGTKLTVLGQPKAAPSVTLFPPSSEELQANKATLVCLISDFYPGAVTVAWKADSSPVKAGVETTTPSKQSNNKYAASSYLSLTPEQWKSHRSYSCQVTHEGSTVEKTVAPAECS
heavy 2: MEVQLLETGGGLVQPGGSLRLSCAASGFTFDNYAINWVRQAPGKGLEWVSGISWNSGSIGYADSVKGRFTISRDNSKNTLYLQMNSLRAEDTAVYYCARGAPHYGGRGEFDFWGQGTLVTVSSASTKGPSVFPLAPSSKSTSGGTAALGCLVKDYFPEPVTVSWNSGALTSGVHTFPAVLQSSGLYSLSSVVTVPSSSLGTQTYICNVNHKPSNTKVDKRVEPKSCDKTHTCPPCPAPELLGRPSVFLFPPKPKDTLMISRTPEVTCVVVDVSHEDPEVKFNWYVDGVEVHNAKTKPREEQYNSTYRVVSVLTVLHQDWLNGKEYKCKVSNKALPAPIEKTISKAKGQPREPQVCTLPPSREEMTKNQVSLSCAVKGFYPSDIAVEWESNGQPENNYKTTPPVLDSDGSFFLVSKLTVDKSRWQQGNVFSCSVMHEALHNHYTQKSLSLSPGK
notes: also called T427-αPE (bispecific)
Turning to B1, the binding result is given as “no binding”.

The values are drawn from US20170174791A1 (RAMOT AT TEL AVIV UNIVERSITY, published 2017).
